Laboratory results as given in patent US20110098217A1 (INDIANA UNIVERSITY RESEARCH AND TECHNOLOGY, published 2011).
“And” between values parts separate entries of the source, which are not always exact repeats. Identical values can stand only once. Like-named read-outs stand apart in the source and are kept apart here. Bridge positions count the residues as written; N and C are the ends. Square brackets hold non-standard residues; d marks the D form. Primed or numbered codes have the meaning given here. Ends that are not written are not given here. MCA = alpha-methylhydrocinnamic acid (2-methyl-3-phenylpropanoic acid); PEG 20 kDa″ = 20 kDa polyethylene glycol (PEG); Abu(4-SO3H) = N[C@@H](CCS(=O)(=O)O)C(=O)O; PEG 20 kDa = 20 kDa polyethylene glycol; PhLac = O=C(O)[C@@H](O)Cc1ccccc1

Columns and labels:
human GLP-1 receptor [1] = target: T1, human GLP-1 receptor (human, UniProt P43220 24-463); test: cell-based or functional assay
human glucagon receptor [2] = target: T2, human glucagon receptor (human, UniProt P47871 26-477); test: SPA competition vs 125I-glucagon, receptor membranes
T2 construct: whole, on cells; cAMP assay: transfected HEK293 cells
T2 sequence (P47871 26-477): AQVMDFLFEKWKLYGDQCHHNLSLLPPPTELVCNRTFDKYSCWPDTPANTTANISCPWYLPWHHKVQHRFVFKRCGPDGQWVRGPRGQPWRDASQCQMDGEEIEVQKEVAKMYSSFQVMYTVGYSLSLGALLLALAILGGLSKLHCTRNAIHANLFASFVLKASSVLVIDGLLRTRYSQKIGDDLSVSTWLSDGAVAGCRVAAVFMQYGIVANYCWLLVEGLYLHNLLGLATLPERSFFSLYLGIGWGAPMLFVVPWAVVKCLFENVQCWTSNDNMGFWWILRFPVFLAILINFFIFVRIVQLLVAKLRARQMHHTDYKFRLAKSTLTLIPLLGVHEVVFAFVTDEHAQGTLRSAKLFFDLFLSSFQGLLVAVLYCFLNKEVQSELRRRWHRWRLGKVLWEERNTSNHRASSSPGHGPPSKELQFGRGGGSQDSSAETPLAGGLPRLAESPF

human glucagon receptor [3] = target: T2, human glucagon receptor; test: cell-based or functional assay
human glucagon receptor [4] = target: T2, human glucagon receptor; test: cell-based or functional assay; remark: listed apart in the source
human GLP-1 receptor [5] = target: T1, human GLP-1 receptor; test: cell-based or functional assay; remark: listed apart in the source
human glucagon receptor [6] = target: T2, human glucagon receptor; test: cell-based or functional assay; remark: listed apart in the source

| Binder | IC50 (human glucagon receptor [2]) | IC50 (cAMP, inhibit 0.2 mM Glucagon) (human glucagon receptor [3]) | also measured |
| --- | --- | --- | --- |
| [PhLac]TSDYSKYLDERRAQDFVQWLMDTGPSSGAPPPSC(PEG 20 kDa)-NH2 (lactam 7-11) [[PLA6, K12E16(Lactam), D28,CEX-C40(20 kDa)]G(6-40)] | – | – | GLP-1 agonism EC50 (human GLP-1 receptor [1]): 0.657 µM |
| [PhLac]TC(PEG 1.2 kDa)EYSKYLDSRRAQDFVQWLMNT-NH2 [[PLA^6, C^8(1.2kDaPEG), E^9]Glucagon(aa6-29)-NH2] | 0.22 µM | – | – |
| C(PEG 3.4 kDa)FTSEYSKYLDSRRAQDFVQWLMNT-NH2 (also: dimer: Cys5 of two chains joined by 3.4 kDa PEG) [3.4kDaPEG-dimer[C^5, E^9]Glucagon(aa5-29)-NH2] | 0.435 µM | 1.34 µM | – |
| [PhLac]TC(PEG 5 kDa)EYSKYLDSRRAQDFVQWLMNT-NH2 [[PLA^6, C^8(5kDaPEG), E^9]Glucagon(aa6-29)-NH2] | 0.948 µM | 0.216 µM | – |
| [PhLac]TSDYSKYLDEQAAKEFIAWLMNT-NH2 (N-terminus assumed; SMILES CC[C@H](C)[C@H](NC(=O)[C@H](Cc1ccccc1)NC(=O)[C@H](CCC(=O)O)NC(=O)[C@H](CCCCN)NC(=O)[C@H](C)NC(=O)[C@H](C)NC(=O)[C@H](CCC(N)=O)NC(=O)[C@H](CCC(=O)O)NC(=O)[C@H](CC(=O)O)NC(=O)[C@H](CC(C)C)NC(=O)[C@H](Cc1ccc(O)cc1)NC(=O)[C@H](CCCCN)NC(=O)[C@H](CO)NC(=O)[C@H](Cc1ccc(O)cc1)NC(=O)[C@H](CC(=O)O)NC(=O)[C@H](CO)NC(=O)[C@@H](NC(=O)[C@@H](O)Cc1ccccc1)[C@@H](C)O)C(=O)N[C@@H](C)C(=O)N[C@@H](Cc1c[nH]c2ccccc12)C(=O)N[C@@H](CC(C)C)C(=O)N[C@@H](CCSC)C(=O)N[C@@H](CC(N)=O)C(=O)N[C@H](C(N)=O)[C@@H](C)O) [[PLA6, E16, GLP(23-32)]G(6-29)] | – | – | Glucagon antagonism IC50 (inhibit 0.2-0.8 nM glucagon) (human glucagon receptor [4]): 0.0645 µM; GLP-1 agonism EC50 (human GLP-1 receptor [5]): 0.0856 µM |
| [PhLac]TSEYSKYLDERRAKDFVC(PEG 20 kDa″)WLMNT-NH2 (lactam 11-15) [[PLA6, E9,E16K20(Lactam), C24(20 kDa)]G(6-29)] | – | – | GLP-1 agonism EC50 (human GLP-1 receptor [1]): 0.825 µM |
| C(PEG 1.2 kDa)FTSEYSKYLDSRRAQDFVQWLMNT-NH2 [[C^5(1.2kDaPEG), E^9]Glucagon(aa5-29)-NH2] | 1.08 µM | 2.28 µM | – |
| [PhLac]TSDYSKYLDEQAAKEFIAWLMDT-NH2 (lactam 11-15; N-terminus assumed; SMILES CC[C@H](C)[C@H](NC(=O)[C@H](Cc1ccccc1)NC(=O)[C@H](CCC(=O)O)NC(=O)[C@@H]1CCCCNC(=O)CC[C@H](NC(=O)[C@H](CC(=O)O)NC(=O)[C@H](CC(C)C)NC(=O)[C@H](Cc2ccc(O)cc2)NC(=O)[C@H](CCCCN)NC(=O)[C@H](CO)NC(=O)[C@H](Cc2ccc(O)cc2)NC(=O)[C@H](CC(=O)O)NC(=O)[C@H](CO)NC(=O)[C@@H](NC(=O)[C@@H](O)Cc2ccccc2)[C@@H](C)O)C(=O)N[C@@H](CCC(N)=O)C(=O)N[C@@H](C)C(=O)N[C@@H](C)C(=O)N1)C(=O)N[C@@H](C)C(=O)N[C@@H](Cc1c[nH]c2ccccc12)C(=O)N[C@@H](CC(C)C)C(=O)N[C@@H](CCSC)C(=O)N[C@@H](CC(=O)O)C(=O)N[C@H](C(N)=O)[C@@H](C)O) [[PLA6, E16K20(lactam), GLP(23-32)]G(6-29)] | – | – | GLP-1 agonism EC50 (human GLP-1 receptor [5]): 0.0512 µM |
| [PhLac]TC(PEG 20 kDa)EYSKYLDSRRAQDFVQWLMNT-NH2 [[PLA^6, C^8(20kDaPEG), E^9]Glucagon(aa6-29)-NH2] | 0.303 µM | 0.236 µM and 0.092 µM | – |
| [PhLac]TSEYSKYLDSRRAQDFVC(PEG 1.2 kDa)WLMNT-NH2 [[PLA^6, E^9,C^24(1.2 kDaPEG)]Glucagon(aa6-29)-NH2] | 0.0047 µM | 0.018 µM | – |
| [MCA]TSEYSKYLDSRRAQDFVC(PEG 20 kDa)WLMNT-NH2 [[MCA^6, E^9, C^24(20kDaPEG)]Glucagon(aa6-29)-NH2] | 0.208 µM | – | – |
| [PhLac]TSEYC(PEG 20 kDa)KYLDSRRAQDFVQWLMNT-NH2 [[PLA^6, E^9, C^11(20kDaPEG)]Glucagon(aa6-29)-NH2] | 0.776 µM | 0.664 µM | – |
| [PhLac]TSEYSKYLDSRRAQDFVC(PEG 20 kDa)WLMNT-NH2 [[PLA^6, E^9, C^24(20kDaPEG)]Glucagon(aa6-29)-NH2] | 0.09 µM | 0.126 µM | – |
| SQLTFTS[Abu(4-SO3H)]YSKYLDSRRAQDFVQFLLNT-NH2 (N-terminus assumed; SMILES CC(C)C[C@H](NC(=O)[C@H](Cc1ccc(O)cc1)NC(=O)[C@H](CCCCN)NC(=O)[C@H](CO)NC(=O)[C@H](Cc1ccc(O)cc1)NC(=O)[C@H](CCS(=O)(=O)O)NC(=O)[C@H](CO)NC(=O)[C@@H](NC(=O)[C@H](Cc1ccccc1)NC(=O)[C@@H](NC(=O)[C@H](CC(C)C)NC(=O)[C@H](CCC(N)=O)NC(=O)[C@@H](N)CO)[C@@H](C)O)[C@@H](C)O)C(=O)N[C@@H](CC(=O)O)C(=O)N[C@@H](CO)C(=O)N[C@@H](CCCNC(=N)N)C(=O)N[C@@H](CCCNC(=N)N)C(=O)N[C@@H](C)C(=O)N[C@@H](CCC(N)=O)C(=O)N[C@@H](CC(=O)O)C(=O)N[C@@H](Cc1ccccc1)C(=O)N[C@H](C(=O)N[C@@H](CCC(N)=O)C(=O)N[C@@H](Cc1ccccc1)C(=O)N[C@@H](CC(C)C)C(=O)N[C@@H](CC(C)C)C(=O)N[C@@H](CC(N)=O)C(=O)N[C@H](C(N)=O)[C@@H](C)O)C(C)C) [[desHis^1, Leu^4, hCys^9(SO3-), Phe^25, Leu^27] Glucagon-NH2] | – | – | cAMP Induction EC50 (human glucagon receptor [6]): 1.61 µM; cAMP Inhibition IC50 (human glucagon receptor [6]): 4.46 µM |
| [PhLac]TSDYSKYLDEQAAKDFIAWLMDT-NH2 (lactam 7-11; N-terminus assumed; SMILES CC[C@H](C)[C@H](NC(=O)[C@H](Cc1ccccc1)NC(=O)[C@H](CC(=O)O)NC(=O)[C@H](CCCCN)NC(=O)[C@H](C)NC(=O)[C@H](C)NC(=O)[C@H](CCC(N)=O)NC(=O)[C@@H]1CCC(=O)NCCCC[C@H](NC(=O)[C@H](CO)NC(=O)[C@H](Cc2ccc(O)cc2)NC(=O)[C@H](CC(=O)O)NC(=O)[C@H](CO)NC(=O)[C@@H](NC(=O)[C@@H](O)Cc2ccccc2)[C@@H](C)O)C(=O)N[C@@H](Cc2ccc(O)cc2)C(=O)N[C@@H](CC(C)C)C(=O)N[C@@H](CC(=O)O)C(=O)N1)C(=O)N[C@@H](C)C(=O)N[C@@H](Cc1c[nH]c2ccccc12)C(=O)N[C@@H](CC(C)C)C(=O)N[C@@H](CCSC)C(=O)N[C@@H](CC(=O)O)C(=O)N[C@H](C(N)=O)[C@@H](C)O) [[PLA6, K12E16(lactam), GLP(23-32)]G(6-29)] | – | – | Glucagon antagonism IC50 (inhibit 0.2-0.8 nM glucagon) (human glucagon receptor [4]): 0.169 µM |
| C(PEG 5 kDa)FTSEYSKYLDSRRAQDFVQWLMNT-NH2 [[C^5(5kDaPEG), E^9]Glucagon(aa5-29)-NH2] | 0.634 µM | 1.61 µM | – |
| C(PEG 20 kDa)FTSEYSKYLDSRRAQDFVQWLMNT-NH2 [[C^5(20kDaPEG), E^9]Glucagon(aa5-29)-NH2] | 0.331 µM | 0.976 µM | – |
